{
  "source": "paper PMC5503682",
  "key": {"[1]": {"target": "SP6 tailspike protein gp46 (bacteriophage SP6)", "test": "cryo-EM structure"}, "[2]": {"target": "SP6 tailspike protein gp47 (bacteriophage SP6)", "test": "cryo-EM structure"}},
  "data": [
    {"substance": "SP6 tailspike protein gp46 (natural protein)", "values": [
      {"measurement": "stoichiometry N", "setting": "[1]", "result": 3}
    ]},
    {"substance": "SP6 tailspike protein gp47 (natural protein)", "values": [
      {"measurement": "stoichiometry N", "setting": "[2]", "result": 3}
    ]}
  ]
}
